# Earlier results, collected in PMC4965862.
# Biological target: Cys45 (UniProt position 45, AFTGICQGELD)
# Conditions: reduced enzyme (Cys45 thiol/thiolate)
substance,measurement,value
"Alkyl hydroperoxide reductase E (AhpE), one-cysteine peroxiredoxin (Mycobacterium tuberculosis)",pKa,5.2
